The results in this text go back to patent US20200223915A1 (OSAKA UNIVERSITY, published 2020).

In the test the target is T1, wild-type human Claudin 5 protein (human, UniProt O00501 1-218).
T1 construct: also called hCLDN5; CLDN 5
T1 sequence: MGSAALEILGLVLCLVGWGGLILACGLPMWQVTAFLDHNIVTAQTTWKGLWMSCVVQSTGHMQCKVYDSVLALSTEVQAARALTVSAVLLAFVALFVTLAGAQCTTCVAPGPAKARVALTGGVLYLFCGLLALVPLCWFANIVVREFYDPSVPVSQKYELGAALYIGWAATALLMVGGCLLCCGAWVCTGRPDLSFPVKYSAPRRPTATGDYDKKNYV
The test is described as follows: FACS screening of hybridoma supernatants on human Claudin 5-expressing HT-1080 cells against mock cells; positive clones. As to the method: The cells were washed three times with 0.2% BSA-TBS, and then mixed with 100 μL of a secondary antibody solution (FITC conjugated goat anti-mouse IgG+IgM in 1% BSA-PBS (1:400)), followed by a reaction at 4° C. for 1 hour. The cells were washed with 0.2% BSA-TBS, and FACS analysis (FACS caliber, BD Bioscience) was performed.

B1: antibody 1D1 (antibody, IgG2a, V domains shown)
VH: QVQLQQPGAEHVKPGASVKLSCKASGYTFTTYWIHWVKQRPGRGLEWIGRIAPNSGGTKYNENFKSKATLTVDRPSTTAYMQLSGLTSEDSAVYYCARWDFTFGTNLDYWGQGTTLTVSS
VL: DIVMTQSQKFMSTSVGDRVSITCKASQNVRTAVAWYQQKPGQSPKALIFLASNRHTGVPDRFTGSGSGTDFTLTITNVQSEDLADYFCLQHWTYPYTFGGGTKLEIKR
notes: Tested as hybridoma culture supernatant in the screening; also called antibody F
For B1, the binding result was “binds”.

B2: antibody 1B3 (antibody, IgG2, V domains shown)
VH: QIQLVQSGPELKKPGETVKISCKASGYSFTAHGMSWVKQAPGKGLKWMGWINTYSGVPAYADDFKGRFAFSLETSPSTAFLQINNLKNEDTATYFCTRSHYDRKFGYWGQGTLVTVSA
VL: QAVVTQESALTTSPGETVTLTCRSSTGAVTTSNYANWVQEKPDHLFTGLIGDTNNRAPGVPARFSGSLIGDKAALTITGAQTGDEAIYFCALWYSNLWVFGGGTKLTVRG
notes: Tested as hybridoma culture supernatant in the screening; also called antibody E
B2: the binding result is “binds”.

B3: antibody 3A5 (antibody, IgG2a, V domains shown)
VH: QVQLQQPGTELVKPGASVKLSCKASGYTFTSYWMHWVKQRPGQGLEWIGNINPSNGGTNYNEKFKSKATLTVDKSSTTAYMLLSSLTSEDSAVYYCARYYGSSFLYWYFDVWGTGTTVTVSS
VL: DIVMTQSHKFMSSSVGDRVSITCKASQDVGTAVAWYQQKPGQSPKILIYWASTRHTGVPDRFTGSGSGTDFTLTISNVQSEDLADYFCQQYSSYPTFGSGTKLEIKR
notes: Tested as hybridoma culture supernatant in the screening; also called antibody G
In the case of B3, the binding result was “binds”.
